Source: US20160237157A1 (published 2016)

B1: chimeric LD1 (chLD1) (antibody, V domains shown)
VH: EVQLQQPGAVLVRPGTSVKLSCKASGYTFTNHWMNWVKQRPGQGLEWIGMIHPSDSETTLDQKFKDKATLTVDKSSSTAYMQLNRPTSEDSAVYYCTRGDISLFDYWGQGTTVTVSS
VL: DIQMTQTTSSLSASLGDRVTITCRTSQDISNFLNWYQQKPDGTFKILISYTSRLHSGVPSRFSGSGSGTDYSLTISTLEQEDFATYFCQQGNALPYTFGGGTKLEIE
B2: hLD1.vA (antibody, V domains shown)
VH: EVQLVESGGGLVQPGGSLRLSCAASGYTFTNHWMNWVRQAPGKGLEWVGMIHPSDSETTLDQKFKDRFTISADTSKNTAYLQMNSLRAEDTAVYYCTRGDISLFDYWGQGTLVTVSS
VL: DIQMTQSPSSLSASVGDRVTITCRTSQDISNFLNWYQQKPGKAPKLLIYYTSRLHSGVPSRFSGSGSGTDFTLTISSLQPEDFATYYCQQGNALPYTFGQGTKVEIKR

How the values were obtained:
[1] = biological target: human FGFR4 expressed at the cell surface (human, UniProt P22455 22-802); assay: cell-based or functional assay
[2] = biological target: T1, human FGFR4 (soluble, Part B: SPR and FGFR4 ELISA) (human, UniProt P22455 22-369); assay: surface plasmon resonance, compared with chLD1
T1 construct: Injected over immobilized IgG in SPR (0.48-1000 nM) and immobilized in the FGFR4 ELISA
T1 sequence: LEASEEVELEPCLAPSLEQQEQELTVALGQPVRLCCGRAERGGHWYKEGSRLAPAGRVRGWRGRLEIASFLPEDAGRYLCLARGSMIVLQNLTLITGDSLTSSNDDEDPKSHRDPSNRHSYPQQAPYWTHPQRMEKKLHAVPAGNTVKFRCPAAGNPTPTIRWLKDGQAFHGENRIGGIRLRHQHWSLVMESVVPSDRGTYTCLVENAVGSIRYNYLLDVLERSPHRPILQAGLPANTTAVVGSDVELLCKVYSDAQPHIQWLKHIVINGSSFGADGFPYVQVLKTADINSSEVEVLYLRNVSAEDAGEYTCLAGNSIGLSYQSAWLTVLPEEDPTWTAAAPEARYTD

Binder | CYP7α1 expression in HEP3B cells without added FGF19, fold increase [1] | CYP7α1 expression in HUH7 cells in the absence of FGF19, fold increase [1] | CYP7α1 expression in HUH7 cells in the presence of FGF19, fold increase [1] | fold decrease of affinity against chLD1 [2]
B1 | 2 fold | 3.5 fold | 2.9 fold | –
B2 | – | – | – | ~5 fold
